# T1: CD20 (human, UniProt P11836 1-297)
# T1 construct: whole, on cells; also called CD20 on live cells; CD20 on Daudi and Raji cells
# T1 sequence (looked up): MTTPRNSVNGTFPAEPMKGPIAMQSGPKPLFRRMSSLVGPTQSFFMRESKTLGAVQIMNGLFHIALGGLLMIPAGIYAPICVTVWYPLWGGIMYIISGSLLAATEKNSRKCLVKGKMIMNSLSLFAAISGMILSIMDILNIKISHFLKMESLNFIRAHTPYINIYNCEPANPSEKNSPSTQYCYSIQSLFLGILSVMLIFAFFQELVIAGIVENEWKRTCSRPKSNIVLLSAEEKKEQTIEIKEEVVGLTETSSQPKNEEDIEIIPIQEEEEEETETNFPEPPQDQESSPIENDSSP
# B1: veltuzumab (hA20) (antibody, V domains shown)
# VH: QVQLQQSGAEVKKPGSSVKVSCKASGYTFTSYNMHWVKQAPGQGLEWIGAIYPGMGDTSYNQKFKGKATLTADESTNTAYMELSSLRSEDTAFYYCARSTYYGGDWYFDVWGQGTTVTVSS
# VL: DIQLTQSPSSLSASVGDRVTMTCRASSSVSYIHWFQQKPGKAPKPWIYATSNLASGVPVRFSGSGSGTDYTFTISSLQPEDIATYYCQQWTSNPPTFGGGTKLEIK
# Molecular target: T1, CD20
# Experiment: Scatchard analysis, radio-iodinated sample on Raji cells; apparent association constant
binder,measurement,value
B1,Ka,1e+08 M⁻¹

# Reference: patent US20130280250A1 (published 2013)
